The DeepSol protein solubility set

Test: soluble on expression in E. coli; label from the status in PepcDB or PDB records

Sequence | soluble on expression in E. coli
MADTKAKLTLNGDTAVELDVLKGTLGQDVIDIRTLGSKGVFTFDPGFTSTASCESKITFIDGDEGILLHRGFPIDQLATDSNYLEVCYILLNGEKPTQEQYDEFKTTVTLHTMIHEQITRLFHAFRRDSHPMAVMCGITGALAAFYHDSLDVNNPRHREIAAFRLLSKMPTMAAMCYKYSIGQPFVYPRNDLSYAGNFLNMMFSTPCEPYEVNPILERAMDRILILHADHEQNASTSTVRTAGSSGANPFACIAAGIASLWGPAHGGANEAALKMLEEISSVKHIPEFFRRAKDKNDSFRLMGFGHRVYKNYDPRATVMRETCHEVLKELGTKDDLLEVAMELENIALNDPYFIEKKLYPNVDFYSGIILKAMGIPSSMFTVIFAMARTVGWIAHWSEMHSDGMKIARPRQLYTGYEKRDFKSDIKR | soluble
MGSDKIHHHHHHMIDLSLLPPPDVVESVDFEELYQETLGIFREFMKDQWTAALESDPVVKLMEVMAYREMLTRARVNAAAKASLLAFAKGNDLVNRAADYGVEKLVIRPADPDAVPPVEAVMEGDEALRYRTRLSLEALSVAGSSGAYEYHGLSASAELTNVSVDSPRFVEAELTPEVRAQLPAGAIVVVCDYDAGLANPLPGDVSLAILPSLSSTTPVAQLVAKVKAALSAEEVRPITDRPRVAAGVPTEFKVEAELQIEEGPDPDVVKATARAGLNAAIAEARRLQGQLPLSAIYAALHVTGIRSVTLKHPAAGVVCDKRHYPSCTSVTLTSKVVT | not soluble
SNAEERLKMSTTTSTQDSGLLKVLLPPFEKKNNVKVDVIAVGTGQALKLGEAGDVDVVFVHARKLEDKFVADGFGVNRKDVMYNDFVIVGPKNDPAGIAKAKTAAEALKLLATKGATFISRGDKSGTHTKELDLWKSAGVDPKGNWYVEAGQGMGPVITMATERRAYTLTDRGTYNAFKGAKTDLVILFQGEKGLFNPYGIMAVNPKKFPHVKYDLAMKLIDYVTGPEGLKIISDY | soluble
MAEVESFSLDHTKVKAPYVRLAGRKALAGGVVEKYDLRLAQPNREALPTGALHTLEHLLAGYLRDHLPGVIDLSPMGCRTGFYLVVEGPVGEEKVLEAFAQALKDVLAHEGEVPGASFRECGNYRDHDLPGAKAWAEKVLKAGLRVQATVPLEAR | soluble
MGSDKIHHHHHHMTSADPPTLPETSVDVPPTSAEGLLKLITNEYDGLPRQLKRIASYMSQQSDRIMVDRISDIARECEVHPSAIVRFSQRFGFSGFSEMQTLFREAYTHKTTPVQNYQQRIRSMIVNKSQKASAGDLARECVNATLSGLERLSADLDDEEFEKAVDLVVNADNIYVVGVRRSFAVADYLVYNLQHTNKRIHLISGLGGSYREQMRSVRANDLVIAISFTPYGKETQHCLRIAQHHQAKTLIITDSNLSPLAKRANSVLLVNEGSSFAFRSLSATLCLCQALFIAVAYRLELKVDEIHEQVGFDD | not soluble
MGSDKIHHHHHHMKQKTIHIENLSIGYLGKTDVKVVADRINAGINCGELTCLLGANGVGKSTLLRTLSAFQPKLGGKIEIVGKEIDAYTDKELSTVISVVLTEKCDIRNMTVHELVGLGRSPYTDFWGTLRGEDKEVVERSIALVKIQNLAHRMVHTLSDGERQKVMIAKALAQETPVIFLDEPTAFLDFPSKVEMMQLLHRLSRQTNKTIFLSTHDLELALQIADKIWLMDKMNGVTIGTPEDLSLSGKLSSFFARKGIVFDLETGLFRVDNEYTSQIRLVGHGQKYAMVRKALQRNGILANRTVESDTYIETGDLKDGNGFILHPQEGEAVTLNSIEELLERLQAGSAERAV | not soluble
MISRIHIEEFRDIGDLELFFLPGVNLLIGDNGSGKTSVLKACQYVLGTFFCGFKMDHTPTWTQLTPEAKDFRRRVSSDGDELMKHPIKFNFDLRYEENGQNPIELTDQILTKRNTLGRALTTTFQDHQDYTKGLLEGYATDEGRYRPLPVFVFYSVEDIHTKRKVSHSLFQKYRHMASFGYYHALTENAFLDFWIKRMLILREEEQAGNHELAVVRGALLSALGTDGAGVLQDLSIRINKKAVYWKLLDGREISSEHLPDGLRRVISIVVDLAFRCALLNQTLYQSDSALKSEGTVLIDEIDLHLHPRLQASILKGLRKAFPRLQFIITSHAPMVMSSVDADDKYNIVYKMSYNQEMSQYEALKQSTYGLDVSTIMRMILGLAPRDKQVDERLTHLFDLIDLEKYSEATIALQSLQDQFDDSLPELSKASVMLHFLSSEQNEENH | not soluble
GKPFSYGASFNLTFARNRYLRYPDSPNTVEWRKRTGRSVDASVVWVAEGLFRSEEEIDNSAWYGTRPNVGDIKYKDLNGDGKIDEDDRTRVGRGNRPELTYGLNLNCAWNGFDLSAQFTGGALFDVSLTGTYYNGYDDNTVWTQAFKEGANSPLYLVQNAYTTENPNGTFPRLTLGNQGHGGDNGLASTFWLRNGRYLRLKSAQLGYTFPKKWMSPVGIQNLRIYVEGSNLFTISGLPDGIDPESPGVNNGYYPQQRTIMGGITLTF | not soluble
MLFDSHAHYDNKRFDEDRFEVIKKAYDSGVSYILNAAADMASSLETVSLTRKFDFIYGAVGVHPHEVAKMSDDDIEKLKDFAKEEKIVAIGEIGLDYYYDFSPREQQKLWFARQINLAKELNLPIIVHDRDAHKDVLDIVKAEQAKDVGGVFHCYSGSVEMLKDVLENNFYISVGGTLTFKNAKRVVEVVERVPLDRLLIETDCPYLTPEPHRGKRNDSSYVRLVAEKIAKIRGMSFEEVAEITTNNAKRLFGIK | not soluble
MAHHHHHHMKKSINILVCNNYLIHDFLSFFKNSDIDVGTKMDFIQKKASQVRIILLNGNEIMPGINVNYLEQIKEVFINAKIYVRYVVQEVGTVSIMELGQLEQDNIPYERKLAGYVLPNVHVKIDSKTNVMKIKSDNVFSQYYNNGKLTSQAFDQGGFFKTKYVASLAENALLKIEGIHNDMENIPDEYYLYFKQRRDKMEKHPPGYLKRVPLQGQIWGNFHANRRNWKRKF | not soluble
HAAGFRRGDLVHNTLSYHFSPGGFIMDGGARACGCAVFPAGVGNTEAQIEAIKQLQPTGYTGTPSYLLTLLQKYQEQYGELPSFTKALVSGEAVTADMQQAFTDKGIAVFQAYASAELGLIAYQVAGEQGLVIGED | not soluble
GPGSMPVPSYWRMACRSYQFTICATSYLLRWRAPAVTQGSGALVKLPHLVRGARLQRGLLVTDAMIMKLGLVDDFIDEMKKQGTELAIYKDVLPNPTIDMVEEASVLYRKNRCDYLVAVGGGSVMDCAKLIGVRQARPRTPLPYMRGLLRVLWPLPPLIAVPTTAGTGSECTIAAVVSDPAKKDKLVVMDPFLTPSHCVLDPALTLTLPKFVTATAGMDALTHVVEAYTNVFHYRTVDKAALRAMELLAKYLPCAYKDGSNLEAREKMLHASYLAGLSFTRAGVGNVHAAAHAVGGLYNAPHGYVNAVILPHVLDMYGSAAHKSLARLAEAANIVGANDAEKAVNFISWVREMNAQMQIPTTLGAGDSRWAPQEEDIPFLVKHAVTEANPFYAVPVIFGEEEMTELFRRVM | not soluble
AIAGCLFSVPEGGYLEVNEERSAGAYDSLSTASGIDDLHDERQPKAAYSMEDSSADLVAEDGAAVHQEVLNAHDDAWCRFDATSDATNEGAAAGGIGAPPSPLDLSLDSVVQQAYQDRVLVVFSGKAFGIALQLQMHWAALGASSAAPECVMDACVPESLLRAVHACLRAHMHACERIANRWNPDSELSAACSSAHPKKAVEVGTILYALLAEAHRLHRVTGGRFDPTCGALWRGFRATLRSSALQRPPQGRAFST | soluble
VAHFTFQPDPEPREYGQTQKMNLFQSVTSALDNSLAKDPTAVIFGEDVAFGGVFRCTVGLRDKYGKDRVFNTPLCEQGIVGFGIGIAVTGATAIAEIQFADYIFPAFDQIVNEAAKYRYRSGDLFNCGSLTIRSPWGCVGHGALYHSQSPEAFFAHCPGIKVVIPRSPFQAKGLLLSCIEDKNPCIFFEPKILYRAAAEEVPIEPYNIPLSQAEVIQEGSDVTLVAWGTQVHVIREVASMAKEKLGVSCEVIDLRTIIPWDVDTICKSVIKTGRLLISHEAPLTGGFASEISSTVQEECFLNLEAPISRVCGYDTPFPHIFEPFYIPDKWKCYDALRKMINYGGHHHHHH | soluble
AIAVSRLEHPAGGYKKVFESCEELAEPIPAHVSGKIPAWLSGSLLRMGPGLFEIGDEPFNHLFDGQALIHKFDLKDGRVTYHRKFIRTDAYVRAMTEKRVVITELGTAAYPDPCKNIFSRFFTYFQGTEVTDNCSVNIYPIGEDFYACTETNFITKVNPDTLETIKKVDLCNYLSVNGLTAHPHIEADGTVYNIGNCFGKNMSLAYNIVKIPPLQEEKSDPLAMSKVLVQFPSSERFKPSYVHSFGMTENHFVFVETPVKINLLKFLTSWSIRGSNYMDCFESNDRMGTWFHLAAKNPGKYINNPSQ | soluble
MKFIRRCMMETRYTVRQAVEMTGVKSYVLRYWEEELELQIHRNELGHRYYTGYDIQLFLNIKELKKRGLQLRAIKNLIPQITASMTGFGESASTLLEGEVIDHAEVKTDRDLKEKISKKDEGKNDKILEFQAILERLITQELKAQNEDEERCRSLDYAIRRQQLARKEAAAAAEKKSGRRRRDK | not soluble
MGSDKIHHHHHHMRGGNIETMVAGTIKVVQMLPDLNEGGVEKGTLELGAFLTESGHQSIVISGGGRMVSQLESEGSRHLTWPHIGEKSPRCLNYFFPLRRFLLKEGVDIVHLRSRLPAWVAFLAWKSLPVKRRPVLITTFHGFYSVNFYSAIMTRGERIIAVSKTIADHIREAYDVAAERIVLIPRGLDEEQFNPENVTVERIRNLKERWGLNGNTDPVVMLPGRVTRLKGQDVFLQSLAGIKELPWKAIMVGESDATSEYTRILEKMVGDPDLRERVKFVGHCSDMPAAMTLADIVVSTSTKPESFGRTSVEAQAMRKPVIVSAHGGSLETVLDGKTGWHVKPGDSEALSACLRIALSDESVRKKMGVEGRKWVVSQFTVTKMCEKTVALYQELLLRKSSWSQI | not soluble
MGSDKIHHHHHHMHIAPHDNQNKPIVDAEHDLVPLNYFNIVKLRRGEVFEYAVPGYETCVVPATGTVDIDVEGAIYPDLGNRTEDVWDGEPEGVYVPVGAKVRITCKTDVTETFIAGAKYDKVLEPFDVRADALDVVQYGSDDTKTHRKIKHILGANHHDKVGRLLVSELYTVGEGGWSGFPSHKHDTDRLPDETRHDETYNFRFKPNYGSGVQMLQREDNQPGDAYHIMDGSTVLIDKGYHPCAVLPGYQMYYFTILGGLSQRSLKQYFQPTHAEQLHTIPGIMDMVAKFK | not soluble
MAHHHHHHMRPVIVMLLHEEQDTGAYMIKYLVTRGMDFVMFRCWEERVASLVPKAAGETIRCLPVANKPHHYVPCLVNSTAAPSTESESLVTTSTSLAPVSSNVAEDCRIRAVASFGGSMSVNDELSYFESIRSLMRSCLEKRIPVIGHCLGGQLLSSALGGRIVLSENIEVGWYEMVVEEAEDVKDWFGGRKRFDAFHIHTDSFTIPQGARRIVTGAYCANQAFQVGDQFALGMQFHPEVDEDKVRSLISSQFPTLYTEEELADILRKGAEGAKTPDGRPLVSPGSMTRECIEKCLREGRIEQNRPIADSIYDTWCSGFLF | not soluble
LKRLFFTVSLAVVLSACQALPLNQSQAIVHDEYVSSGDLLPIEAITTIDGEELDLQQLGKRKLVILFATWCHDSNRLLKALNSSPLLEMEGIEIVAIAREEDLETVTAWRDKRGIKVALAVDNDRSIYRRFASGGIPRLITIGENNKIIKMNLAEGEQQLAKIV | not soluble
